From patent US20200392251A1 (University of California, published 2020)
Numbering of substitutions follows the chain as printed.

Legend:
[1] = target: human β-secretase 1 (BACE1), extracellular/catalytic domain (human, UniProt P56817 46-457, limits assumed); experiment: cell-based or functional assay
[2] = target: T1, human MMP-12 catalytic domain mutant D4 (cdMMP-12 D4) (human); experiment: bio-layer interferometry (BLItz); biotinylated cdMMP-12 on streptavidin sensor, 50/100/200 nM Fab
T1 construct: PROSS-designed expression-optimised mutant; Cytoplasmically expressed in E. coli, purified on Ni-NTA; biotinylated for ELISA/BLI; also called cdMMP-12 mutant D4; modified D4
T1 sequence (chain, as listed by the source mutant limits assumed): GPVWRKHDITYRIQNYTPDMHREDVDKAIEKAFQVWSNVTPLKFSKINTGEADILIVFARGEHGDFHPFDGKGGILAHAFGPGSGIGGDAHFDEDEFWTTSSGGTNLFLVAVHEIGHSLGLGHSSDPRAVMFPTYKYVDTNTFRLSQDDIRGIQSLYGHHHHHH
Description: (§1) On streptavidin coated ELISA plates, 5 μg/mL biotinylated cdMMPs were immobilized and incubated with two-fold serially diluted purified Fabs. Bound Fabs were detected with anti-Fab-HRP (Sigma-Aldrich), and signals were developed by TMB substrate (Thermo Scientific) and measured using a microplate reader (BioTek). […] Bound Fabs were detected using anti-Fab-HRP. For bio-layer interferometry (using ForteBio BLItz), biotinylated cdMMP-12 D4/wt was loaded onto streptavidin biosensors. After washing to establish baselines, 50, 100, or 200 nM of Fabs were associated with immobilized cdMMP-12 D4/wt for 200 sec, then dissociated into 50 mM HEPES, 150 mM NaCl pH 7.5 for 120 sec. Averages of measured kₒₙ and koff values were determined for KD calculations.

[3] = target: T2, human MMP-12 catalytic domain wild type (cdMMP-12 wt) (human, UniProt P39900 106-263); experiment: as above
T2 construct: biotinylated for ELISA/BLI; also called wt cdMMP-12; cdMMP-12 wide-type
T2 sequence (P39900 other isoform, or with tags, fused parts or gaps limits assumed): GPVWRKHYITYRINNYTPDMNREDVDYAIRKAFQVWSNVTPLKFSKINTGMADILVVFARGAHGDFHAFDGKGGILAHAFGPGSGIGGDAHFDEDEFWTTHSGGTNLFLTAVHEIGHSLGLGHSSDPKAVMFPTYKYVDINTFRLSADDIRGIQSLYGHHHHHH
Description: as §1

[4] = target: T1, human MMP-12 catalytic domain mutant D4 …; experiment: bio-layer interferometry (ForteBio BLItz), biotinylated cdMMP-12 D4 on streptavidin biosensor, Fab at 50, 100 and 200 nM [panel A, LG4]
Description: as §1

[5] = target: T1, human MMP-12 catalytic domain mutant D4 …; experiment: direct ELISA; biotinylated cdMMP on streptavidin plate, Fab titrated, anti-Fab-HRP
Description: as §1

[6] = target: T2, human MMP-12 catalytic domain wild type …; experiment: as above
Description: as §1

[7] = target: T3, catalytic domain of human MMP-14 (cdMMP-14) (human, UniProt P50281 114-320); experiment: bio-layer interferometry
T3 construct: range 114-320; Produced active in E. coli periplasm; biotinylated for BLI/ELISA

[8] = target: T1, human MMP-12 catalytic domain mutant D4 …; experiment: FRET peptide (M-2350) inhibition assay
Description: (§2) To calculate inhibition constants (KIs), data were fit with the equations for slow tight-binding inhibitors. The inhibition type of the Fabs was determined using the initial velocities of cdMMP-12 D4 as a function of substrate concentration (250-2000 nM) at various Fab concentrations (31-500 nM). The values of Vₘₐₓ and Kₘ were derived from linearization in accordance with the Lineweaver-Burk equation.

[9] = target: T1, human MMP-12 catalytic domain mutant D4 …; experiment: cell-based or functional assay
[10] = target: T2, human MMP-12 catalytic domain wild type …; experiment: cell-based or functional assay
[11] = target: T3, catalytic domain of human MMP-14 …; experiment: bio-layer interferometry; reference cdMMP-12 wt
[12] = target: T2, human MMP-12 catalytic domain wild type …; experiment: bio-layer interferometry (ForteBio BLItz), biotinylated cdMMP-12 wt on streptavidin biosensor, Fab at 50, 100 and 200 nM [panel B, LG4]
Description: as §1

[13] = target: T3, catalytic domain of human MMP-14 …; experiment: FRET peptide inhibition assay
Description: as §2

[14] = target: T1, human MMP-12 catalytic domain mutant D4 …; experiment: bio-layer interferometry (ForteBio BLItz), biotinylated cdMMP-12 D4 on streptavidin biosensor, Fab at 50, 100 and 200 nM [panel A, LH6]
Description: as §1

[15] = target: T2, human MMP-12 catalytic domain wild type …; experiment: bio-layer interferometry (ForteBio BLItz), biotinylated cdMMP-12 wt on streptavidin biosensor, Fab at 50, 100 and 200 nM [panel B, LH6]
Description: as §1

[16] = target: T3, catalytic domain of human MMP-14 …; experiment: FRET peptide inhibition assay; reference cdMMP-12 mutant D4
Description: as §2

[17] = target: T3, catalytic domain of human MMP-14 …; experiment: enzyme inhibition assay with FRET peptide substrate (M-2350), Fab titrated on cdMMP-14 [panel 2B4]
Description: (§3) For inhibition tests, 1 μM Fabs were 2-fold serially diluted into protease specific assay buffer and incubated with 1-10 nM proteases for 30 min at room temperature. […] Inhibition percentages at given concentrations were calculated by comparing the initial reaction rates in the presence or absence of inhibitor. […] Vₘₐₓ and Kₘ at various Fab concentrations were measured to determine the inhibition type. FRET inhibition assays were also used for selectivity tests of isolated Fabs with the relevant proteases.

[18] = target: T3, catalytic domain of human MMP-14 …; experiment: FRET peptide inhibition assay; KI=IC50/(S/Km+1)
Description: as §3

[19] = target: T3, catalytic domain of human MMP-14 …; experiment: bio-layer interferometry (ForteBio), biotinylated protease on streptavidin biosensor, Fab in solution [panel 2B4]
Description: (§4) Binding kinetics of produced antibodies towards associated protease targets were analyzed by using biolayer interferometry (ForteBio). For Fabs, biotinylated proteases were immobilized on streptavidin biosensors, and Fab binding to the sensors in absence of protease was monitored as backgrounds.

[20] = target: T3, catalytic domain of human MMP-14 …; experiment: biolayer interferometry; biotinylated protease on streptavidin sensor, Fab in solution
Description: as §4

[21] = target: T1, human MMP-12 catalytic domain mutant D4 …; experiment: bio-layer interferometry (ForteBio BLItz), biotinylated cdMMP-12 D4 on streptavidin biosensor, Fab at 50, 100 and 200 nM [panel A, LH11]
Description: as §1

[22] = target: T2, human MMP-12 catalytic domain wild type …; experiment: bio-layer interferometry (ForteBio BLItz), biotinylated cdMMP-12 wt on streptavidin biosensor, Fab at 50, 100 and 200 nM [panel B, LH11]
Description: as §1

[23] = target: T3, catalytic domain of human MMP-14 …; experiment: bio-layer interferometry (ForteBio), biotinylated protease on streptavidin biosensor, Fab in solution [panel 1A5]
Description: as §4

[24] = target: T3, catalytic domain of human MMP-14 …; experiment: enzyme inhibition assay with FRET peptide substrate (M-2350), Fab titrated on cdMMP-14 [panel 1A5]
Description: as §3

[25] = target: T3, catalytic domain of human MMP-14 …; experiment: enzyme inhibition assay with FRET peptide substrate (M-2350), Fab titrated on cdMMP-14 [panel 2B12]
Description: as §3

[26] = target: T3, catalytic domain of human MMP-14 …; experiment: bio-layer interferometry (ForteBio), biotinylated protease on streptavidin biosensor, Fab in solution [panel 2B12]
Description: as §4

Sequence of human β-secretase 1 (BACE1), extracellular/catalytic domain (P56817 46-457 limits assumed, form in doubt): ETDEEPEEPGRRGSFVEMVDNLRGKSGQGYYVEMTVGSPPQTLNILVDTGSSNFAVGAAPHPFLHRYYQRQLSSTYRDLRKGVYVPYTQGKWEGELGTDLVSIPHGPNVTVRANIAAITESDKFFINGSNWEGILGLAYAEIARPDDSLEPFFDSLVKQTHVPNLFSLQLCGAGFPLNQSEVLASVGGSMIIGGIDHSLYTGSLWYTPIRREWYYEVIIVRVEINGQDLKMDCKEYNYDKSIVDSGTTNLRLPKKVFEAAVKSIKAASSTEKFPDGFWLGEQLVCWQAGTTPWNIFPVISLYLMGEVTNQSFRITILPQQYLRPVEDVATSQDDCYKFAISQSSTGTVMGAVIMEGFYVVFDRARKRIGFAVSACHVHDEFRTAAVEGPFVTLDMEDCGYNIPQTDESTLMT

B1: anti-BACE1 IgG B2B2 (antibody, V domains shown)
VH: EVQLVESGGGLVQPGGSLRLSCAASGFNISSYYMHWVRQAPGKGLEWVASIYSSYGYTYYADSVKGRFTISADTSKNTAYLQMNSLRAEDTAVYYCARYWGYYAWFGSHPWAYGAFDYWGQGTLVTVSS
VL: DIQMTQSPSSLSASVGDRVTITCRASQSVSSAVAWYQQKPGKAPKLLIYSASSLYSGVPSRFSGSRSGTDFTLTISSLQPEDFATYYCQQYGYYLITFGQGTKVEIKR
**Q.** Which “apparent IC50 of Aβ40 production, HEK293 cells expressing APP” value [1] does the source give for B1 here?
**A.** 330 nM

B2: anti-MMP-12 Fab LG4 (Fab, V domains shown)
VH: EVQLVESGGGLVQPGGSLRLSCAASGFNLYYSYMHWVRQAPGKGLEWVASISSYYGYTSYADSVKGRFTISADTSKNTAYLQMNSLRAEDTAVYYCARSPIVYYELFMFIDMGAQGWKYGMDYWGQGTLVTVSS
VL: DIQMTQSPSSLSASVGDRVTITCRASQSVSSAVAWYQQKPGKAPKLLIYSASSLYSGVPSRFSGSRSGTDFTLTISSLQPEDFATYYCQQTFYPFTFGQGTKVEIKR
notes: Fab from a synthetic human Fab library with long CDR-H3s, produced in E. coli periplasm; also called Clone LG4
**Q.** Which Kd [2] does the source give for B2 here?
**A.** 37 nM

**Q.** And the Kd [3]?
**A.** 71 nM

**Q.** What about the koff [4] of the same binder?
**A.** 0.0041 s⁻¹

**Q.** What about the kon [4] of the same binder?
**A.** 110000 M⁻¹ s⁻¹

**Q.** What about the EC50 [5] of the same binder?
**A.** 97 nM

**Q.** And the EC50 [6]?
**A.** 180 nM

**Q.** And the Kd [7]?
**A.** 640 nM

**Q.** What about the Ki [8] of the same binder?
**A.** 76 nM

**Q.** And the “Inhibition, Elastin-FITC IC50” value [9]?
**A.** 210 nM

**Q.** And the “Inhibition, Elastin-FITC IC50” value [10]?
**A.** 350 nM

**Q.** What about the “fold (KD compared with cdMMP-12 wt)” value [11] of the same binder?
**A.** 9 fold

**Q.** What about the koff [12] of the same binder?
**A.** 0.0038 s⁻¹

**Q.** What about the kon [12] of the same binder?
**A.** 54000 M⁻¹ s⁻¹

B3: anti-MMP-12 Fab LH6 (Fab, V domains shown)
VH: EVQLVESGGGLVQPGGSLRLSCAASGFNLSYSYMHWVRQAPGKGLEWVASIYPSYGSTYYADSVKGRFTISADTSKNTAYLQMNSLRAEDTAVYYCARDLEESLPKRARTAVSKELESVPYVMDYWGQGTLVTVSS
VL: DIQMTQSPSSLSASVGDRVTITCRASQSVSSAVAWYQQKPGKAPKLLIYSASSLYSGVPSRFSGSRSGTDFTLTISSLQPEDFATYYCQQSSHYASPPITFGQGTKVEIKR
notes: Fab from a synthetic human Fab library with long CDR-H3s, produced in E. coli periplasm; also called Clone LH6
**Q.** Which results are given for B3?
**A.** Kd [2]: 510 nM; Kd [3]: 430 nM; Ki [13]: 4.7 µM; EC50 [5]: 290 nM; EC50 [6]: ~1000 nM; Kd [7]: 480 nM; Ki [8]: 91 nM; Inhibition, Elastin-FITC IC50 [9]: 61 nM; Inhibition, Elastin-FITC IC50 [10]: 1700 nM; fold (KD compared with cdMMP-12 wt) [11]: 1.1 fold; koff [14]: 0.011 s⁻¹; kon [14]: 22000 M⁻¹ s⁻¹; koff [15]: 0.0065 s⁻¹; kon [15]: 15000 M⁻¹ s⁻¹; fold (KI compared with cdMMP-12 mutant D4) [16]: 52 fold

B4: anti-MMP-14 Fab 2B4 (Fab, V domains shown)
VH: EVQLVESGGGLVQPGGSLRLSCAASGFNLYSSYIHWVRQAPGKGLEWVASIYSSYSSTYYADSVKGRFTISADTSKNTAYLQMNSLRAEDTAVYYCARSDSAVYSVRRMGSSGLAAYAMDYWGQGTLVTVSS
VL: B3 VL with S91Y, H93Y, Y94G, A95Y, P97S, P98L
notes: Fab from a synthetic human Fab library, produced in E. coli periplasm; also called Clone 2B4
**Q.** B4 was tested. Which IC50 [17] did it give?
**A.** 110 nM

**Q.** And the Ki [18]?
**A.** 98 nM

**Q.** What about the koff [19] of the same binder?
**A.** 0.00079 s⁻¹

**Q.** What about the kon [19] of the same binder?
**A.** 12000 M⁻¹ s⁻¹

**Q.** And the Kd [20]?
**A.** 66 nM

B5: anti-MMP-12 Fab LH11 (Fab, V domains shown)
VH: EVQLVESGGGLVQPGGSLRLSCAASGFNLSYYSMHWVRQAPGKGLEWVAYIYPYYGSTYYADSVKGRFTISADTSKNTAYLQMNSLRAEDTAVYYCARFLLSIGKLFVGDGSILHVWL
VL: DIQMTQSPSSLSASVGDRVTITCRASQSVSSAVAWYQQKPGKAPKLLIYSASSLYSGVPSRFSGSRSGTDFTLTISSLQPEDFATYYCQQAYYGYLFTFGQGTKVEIKR
notes: Fab from a synthetic human Fab library with long CDR-H3s, produced in E. coli periplasm; also called Clone LH11
**Q.** With B5 as the binder, how does the Kd [2] read?
**A.** 38 nM

**Q.** What about the Kd [3] of the same binder?
**A.** 75 nM

**Q.** What about the Ki [13] of the same binder?
**A.** 9.6 µM

**Q.** What about the koff [21] of the same binder?
**A.** 0.0035 s⁻¹

**Q.** What about the kon [21] of the same binder?
**A.** 92000 M⁻¹ s⁻¹

**Q.** And the koff [22]?
**A.** 0.0032 s⁻¹

**Q.** What about the kon [22] of the same binder?
**A.** 43000 M⁻¹ s⁻¹

**Q.** What about the EC50 [5] of the same binder?
**A.** 100 nM

**Q.** And the EC50 [6]?
**A.** 140 nM

**Q.** And the Kd [7]?
**A.** 780 nM

**Q.** What about the Ki [8] of the same binder?
**A.** 75 nM

**Q.** What about the “Inhibition, Elastin-FITC IC50” value [9] of the same binder?
**A.** 18 nM

**Q.** And the “Inhibition, Elastin-FITC IC50” value [10]?
**A.** 23 nM

**Q.** And the “Inhibition, Fibronectin IC50” value [10]?
**A.** 510 nM

**Q.** And the “fold (KD compared with cdMMP-12 wt)” value [11]?
**A.** 10 fold

**Q.** What about the “fold (KI compared with cdMMP-12 mutant D4)” value [16] of the same binder?
**A.** 130 fold

B6: anti-MMP-14 Fab 1A5 (Fab, V domains shown)
VH: EVQLVESGGGLVQPGGSLRLSCAASGFNLYYYYMHWVRQAPGKGLEWVAYIYPYSGSTYYADSVKGRFTISADTSKNTAYLQMNSLRAEDTAVYYCARLDFLMRDIYYDLGGGALGWLIKYAMDYWGQGTLVTVSS
VL: B5 VL with A91Y, Y92S, Y93G, G94P, L96P, F97I
notes: Fab from a synthetic human Fab library, produced in E. coli periplasm; also called Clone 1A5
**Q.** For B6, which Ki [18] is on record?
**A.** 150 nM

**Q.** And the koff [23]?
**A.** 0.0025 s⁻¹

**Q.** What about the kon [23] of the same binder?
**A.** 44000 M⁻¹ s⁻¹

**Q.** And the Kd [20]?
**A.** 57 nM

**Q.** And the IC50 [24]?
**A.** 170 nM

B7: anti-MMP-14 Fab 2B12 (Fab, V domains shown)
VH: EVQLVESGGGLVQPGGSLRLSCAASGFNIYYSSMHWVRQAPGKGLEWVAYIYSSSSYTYYADSVKGRFTISADTSKNTAYLQMNSLRAEDTAVYYCARDCCSCVFSQSAGITLACVYVMDYWGQGTLVTVSS
VL: DIQMTQSPSSLSASVGDRVTITCRASQSVSSAVAWYQQKPGKAPKLLIYSASSLYSGVPSRFSGSRSGTDFTLTISSLQPEDFATYYCQQWGPHYAPITFGQGTKVEIKR
notes: Fab from a synthetic human Fab library, produced in E. coli periplasm; also called Clone 2B12
**Q.** With B7 as the binder, how does the IC50 [25] read?
**A.** 140 nM

**Q.** And the Ki [18]?
**A.** 120 nM

**Q.** What about the Kd [20] of the same binder?
**A.** 76 nM

**Q.** And the koff [26]?
**A.** 0.0053 s⁻¹

**Q.** What about the kon [26] of the same binder?
**A.** 70000 M⁻¹ s⁻¹
